According to article PMC12123718 (Respiratory Research, 2025):

Target: recombinant human PKM2 (rhPKM2) (human, UniProt P14618 1-531)
Test: SPR

Sequence of recombinant human PKM2 (rhPKM2) (P14618 whole entry): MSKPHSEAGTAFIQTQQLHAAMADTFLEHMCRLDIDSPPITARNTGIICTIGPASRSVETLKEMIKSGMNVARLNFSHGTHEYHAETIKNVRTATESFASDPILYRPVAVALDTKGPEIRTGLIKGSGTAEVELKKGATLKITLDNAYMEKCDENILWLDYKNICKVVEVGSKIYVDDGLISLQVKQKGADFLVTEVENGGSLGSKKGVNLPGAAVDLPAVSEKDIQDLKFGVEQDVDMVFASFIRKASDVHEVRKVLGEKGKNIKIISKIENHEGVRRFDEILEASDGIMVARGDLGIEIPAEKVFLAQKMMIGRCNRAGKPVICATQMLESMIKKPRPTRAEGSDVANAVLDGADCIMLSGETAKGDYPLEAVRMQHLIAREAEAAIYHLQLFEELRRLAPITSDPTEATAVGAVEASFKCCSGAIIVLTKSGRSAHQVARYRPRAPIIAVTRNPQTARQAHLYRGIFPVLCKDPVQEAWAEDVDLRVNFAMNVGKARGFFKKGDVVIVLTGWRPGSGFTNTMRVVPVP

B1: recombinant hPFN2 (rhPFN2) (natural protein, human, UniProt P35080 1-140, looked up)
chain: MAGWQSYVDNLMCDGCCQEAAIVGYCDAKYVWAATAGGVFQSITPIEIDMIVGKDREGFFTNGLTLGAKKCSVIRDSLYVDGDCTMDIRTKSQGGEPTYNVAVGRAGRVLVFVMGKEGVHGGGLNKKAYSMAKYLRDSGF
- Kd: 50.6 nM
